Data as given in patent publication US20200054723A1 (ALLAKOS, published 2020).
Substitutions are numbered along the chain they refer to. Several values for one entry are separate records, joined by “and”; a condition that tells them apart may be missing. Equal values may be shown once.

Assays:
[1] = molecular target: human Siglec-8 on human cells (eosinophils, mast cells) (human, UniProt Q9NYZ4 17-499); test: cell-based or functional assay
[2] = molecular target: T1, recombinant human Siglec-8 extracellular domain (ECD) (human, UniProt Q9NYZ4 17-363); test: ELISA, coated Siglec-8 ECD
T1 construct: extracellular domain; also called Siglec-8 ECD; full Siglec-8 ECD
T1 sequence (Q9NYZ4 17-363): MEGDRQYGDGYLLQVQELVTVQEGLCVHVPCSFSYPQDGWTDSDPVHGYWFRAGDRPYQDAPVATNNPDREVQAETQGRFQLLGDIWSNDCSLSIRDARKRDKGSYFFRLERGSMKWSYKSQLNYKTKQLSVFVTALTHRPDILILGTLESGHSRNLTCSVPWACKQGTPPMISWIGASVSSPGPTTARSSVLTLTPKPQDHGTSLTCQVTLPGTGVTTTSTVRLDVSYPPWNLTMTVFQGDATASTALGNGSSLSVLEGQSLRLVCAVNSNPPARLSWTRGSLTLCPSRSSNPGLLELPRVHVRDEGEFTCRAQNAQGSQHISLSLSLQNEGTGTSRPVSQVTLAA

[3] = molecular target: T2, Siglec-8-Fc tagged protein (human Siglec-8 extracellular domain fused to an immunoglobulin Fc region) (human); test: BLI (Octet Red 384), Siglec-8-Fc on anti-human capture sensors, Fab in solution
T2 construct: also called Siglec-8 Fc fusion protein
T2 sequence (chain, as listed by the source limits assumed): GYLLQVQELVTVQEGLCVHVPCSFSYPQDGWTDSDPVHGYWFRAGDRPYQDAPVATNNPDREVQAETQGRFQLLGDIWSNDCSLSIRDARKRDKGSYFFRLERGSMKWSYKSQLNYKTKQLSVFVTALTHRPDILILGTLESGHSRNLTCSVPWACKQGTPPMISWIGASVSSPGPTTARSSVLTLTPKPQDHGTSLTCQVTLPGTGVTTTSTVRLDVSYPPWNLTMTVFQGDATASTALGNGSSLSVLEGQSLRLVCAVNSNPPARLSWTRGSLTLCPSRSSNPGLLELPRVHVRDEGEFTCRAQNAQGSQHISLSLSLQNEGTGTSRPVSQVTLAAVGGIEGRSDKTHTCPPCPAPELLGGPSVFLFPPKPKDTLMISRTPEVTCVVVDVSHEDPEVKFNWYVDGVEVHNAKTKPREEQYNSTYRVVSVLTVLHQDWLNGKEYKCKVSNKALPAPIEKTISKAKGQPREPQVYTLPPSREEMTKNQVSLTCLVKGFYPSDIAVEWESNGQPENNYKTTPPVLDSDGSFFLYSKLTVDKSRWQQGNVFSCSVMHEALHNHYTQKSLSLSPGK
Description: Antibody affinity determination was also carried out by bio-layer interferometry (ForteBio). Binding of mouse, chimeric and humanized anti-Siglec-8 antibody Fab fragments to human Siglec-8 protein was measured on a ForteBio Octet Red 384. The assay was conducted at 25° C., at an RPM of 1000 in assay buffer. […] Fab fragments (antibodies were digested with Thermo-Pierce immobilized papain per manufacturer's specifications) were diluted in assay buffer from 50 nM to 1.56 nM with 2× dilutions. The Siglec-8-Fc tagged protein was immobilized on Anti-Human-Capture sensors at 100 nM in assay buffer for 3 min to a change in nm of approximately 1.2. Two-minute associations were conducted, followed by 10-minute dissociations. Results were blanked with an empty reference AHC sensor, and analyzed in ForteBio analysis software with 1:1 global fit parameters.

[4] = molecular target: T3, Dimeric Siglec-8 (human Siglec-8 ECD protein) (human, UniProt Q9NYZ4 17-363); test: SPR (Biacore), antibody captured, dimeric Siglec-8 as analyte, 1:1 global fit (avidity)
T3 construct: extracellular domain; Analyte of the Biacore avidity assay
T3 sequence (Q9NYZ4 17-363): as the sequence (Q9NYZ4 17-363) above
Description: Antibody avidity determination was carried out by SPR analysis using a Biacore T200. Binding of human Siglec-8 ECD protein to mouse, chimeric and humanized anti-Siglec-8 antibodies was measured on a […]. The capture antibodies (goat-anti-human-Fc and goat-anti-mouse-Fc from Jackson Immunoresearch) were immobilized on a CM5 chip according to manufacturer's protocol (Biacore, GE). Flow-cell 1, 2 and 3 were immobilized with anti-human, and flow cell 4 with anti-mouse antibodies. The assay was conducted at 25° C., at a flow rate of […]. Assay buffer was 20 mM Tris-HCl pH 8.3, 150 mM Sodium Chloride, 0.05% Polysorbate 20, 10% glycerol, 0.1% BSA, made in ultrapure water. Dimeric Siglec-8 (impurities of monomeric and oligomeric Siglec-8 were removed by size-exclusion chromatography) was diluted in assay buffer from 15 nM to […] with 2× dilutions. Antibodies were captured to a change of approximately 120 RU. Six-minute high performance injections were conducted, followed by 120-minute dissociations. Flow cells were regenerated with 50 mM glycine pH 1.5. Results were double blanked with an empty reference cell and multiple assay buffer injections, and analyzed with 1:1 global fit parameters.

Sequence of human Siglec-8 on human cells (eosinophils, mast cells) (Q9NYZ4 17-499): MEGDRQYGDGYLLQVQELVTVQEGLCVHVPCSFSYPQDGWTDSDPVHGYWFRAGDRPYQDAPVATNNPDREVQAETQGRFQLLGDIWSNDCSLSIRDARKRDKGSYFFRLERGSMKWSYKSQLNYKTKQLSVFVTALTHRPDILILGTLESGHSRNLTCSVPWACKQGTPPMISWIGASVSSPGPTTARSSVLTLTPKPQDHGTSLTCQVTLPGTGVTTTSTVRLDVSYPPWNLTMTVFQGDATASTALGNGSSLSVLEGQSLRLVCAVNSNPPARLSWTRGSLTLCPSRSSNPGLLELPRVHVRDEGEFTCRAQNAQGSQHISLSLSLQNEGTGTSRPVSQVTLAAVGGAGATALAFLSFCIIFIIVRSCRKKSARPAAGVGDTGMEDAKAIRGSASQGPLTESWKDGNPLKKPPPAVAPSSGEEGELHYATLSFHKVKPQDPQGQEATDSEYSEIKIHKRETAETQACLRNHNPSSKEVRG

B1: HEKA IgG4 antibody (antibody)
heavy: not shown
light: EIVLTQSPATLSLSPGERATLSCSATSSVSYMHWFQQKPGQAPRLLIYSTSNLASGIPARFSGSGSGTDFTLTISSLEPEDFAVYYCQQRSSYPFTFGPGTKLDIKRTVAAPSVFIFPPSDEQLKSGTASVVCLLNNFYPREAKVQWKVDNALQSGNSQESVTEQDSKDSTYSLSSTLTLSKADYEKHKVYACEVTHQGLSSPVTKSFNRGEC
In the case of B1, the “Mean EC50 (ng/ml) for eosinophil depletion” value (from here on “Mean EC50 (ng/ml)”) [1] is reported as 3.9 ng/mL.

B2: HA2KB (antibody, human IgG1, V domains shown)
VH: QVQLQESGPGLVKPSETLSLTCTVSGGSISIYGAHWIRQPPGKGLEWIGVIWAGGSTNYNSALMSRVTISVDTSKNQFSLKLSSVTAADTAVYYCARDGSSPYYYSMEYWGQGTLVTVSS
VL: EIILTQSPATLSLSPGERATLSCSATSSVSYMHWFQQKPGQAPRLWIYSTSNLASGVPARFSGSGSGTDYTLTISSLEPEDFAVYYCQQRSSYPFTFGPGTKLDIK
notes: human IgG1/kappa
Binder B2 has an EC50 [2] of 124 nM.

B3: cVHKB (antibody, human IgG1, V domains shown)
VH: QVQLKESGPGLVAPSQSLSITCTVSGFSLTIYGAHWVRQPPGKGLEWLGVIWAGGSTNYNSALMSRLSISKDNSKSQVFLKINSLQTDDTALYYCARDGSSPYYYSMEYWGQGTSVTVSS
VL: B2 VL
notes: human IgG1/kappa
For B3, the EC50 [2] was 0.027 nM.

B4: HB2KA (antibody, human IgG1, V domains shown)
VH: B2 VH with G27F, I29L, S30T, I37V, I48L, V67L, T68S, V71K, T73N, F78V
VL: B2 VL with I3V, W46L, V57I, Y70F
notes: human IgG1/kappa
For B4, the EC50 [2] was 0.051 nM.

B5: HB2KG (antibody, V domains shown)
VH: B2 VH with G27F, I29L, S30T, I37V, I48L, V67L, T68S, V71K, T73N, F78V
VL: B2 VL with I3V, F35Y, W46L, V57I, Y70F
notes: human IgG1/kappa
B5 gave an EC50 [2] of 0.227 nM.

B6: HB2KC (antibody, human IgG1, V domains shown)
VH: B2 VH with G27F, I29L, S30T, I37V, I48L, V67L, T68S, V71K, T73N, F78V
VL: B2 VL with W46L, V57I, Y70F
notes: human IgG1/kappa
In the case of B6, the EC50 [2] is reported as 0.101 nM.

B7: HA2KFmut (antibody, human IgG1, V domains shown)
VH: B2 VH
VL: B2 VL with I3V, W46L, V57I, F95Y
notes: human IgG1/kappa
For B7, the EC50 [2] was 31.6 nM.

B8: mouse 2E2 Fab fragment (Fab)
VH: B3 VH
light: QIILTQSPAIMSASPGEKVSITCSATSSVSYMHWFQQKPGTSPKLWIYSTSNLASGVPVRFSGSGSGTSYSLTISRMEAEDAATYYCQQRSSYPFTFGSGTKLEIKADAAPTVSIFPPSSEQLTSGGASVVCFLNNFYPKDINVKWKIDGSERQNGVLNSWTDQDSKDSTYSMSSTLTLTKDEYERHNSYTCEATHKTSTSPIVKSFNRNEC
notes: Fab made by papain digestion of the murine IgG1; also called murine 2E2 Fab
B8 was tested, and the Kd [3] was 0.536 nM, the koff [3] was 0.000612 s⁻¹ and the kon [3] was 1.14e+06 M⁻¹ s⁻¹.

B9: chimeric 2E2 antibody (antibody, human IgG1, kappa)
heavy: not shown
light: QIILTQSPAIMSASPGEKVSITCSATSSVSYMHWFQQKPGTSPKLWIYSTSNLASGVPVRFSGSGSGTSYSLTISRMEAEDAATYYCQQRSSYPFTFGSGTKLEIKRTVAAPSVFIFPPSDEQLKSGTASVVCLLNNFYPREAKVQWKVDNALQSGNSQESVTEQDSKDSTYSLSSTLTLSKADYEKHKVYACEVTHQGLSSPVTKSFNRGEC
notes: human IgG1/kappa; also called ch2E2; ch2E2 purified
B9 was tested, and the EC50 [2] was 0.062 nM and 0.044 nM and 0.043 nM, the Kd [4] was 0.016 nM and the koff [4] was 1.32e-05 s⁻¹. The kon [4] was 851000 M⁻¹ s⁻¹.

B10: chimeric 2E2 Fab fragment (Fab)
VH: B3 VH
light: B9 light
notes: Fab made by papain digestion of the human IgG1 chimeric antibody
B10 showed a Kd [3] of 0.585 nM, a koff [3] of 0.000556 s⁻¹ and a kon [3] of 951000 M⁻¹ s⁻¹.

B11: HEKF IgG1 antibody (antibody, V domains shown)
VH: EVQLVESGGGLVQPGGSLRLSCAASGFSLTIYGAHWVRQAPGKGLEWVGVIWAGGSTNYNSALMSRFTISKDNSKNTVYLQMNSLRAEDTAVYYCARDGSSPYYYSMEYWGQGTTVTVSS
VL: EIVLTQSPATLSLSPGERATLSCSATSSVSYMHWFQQKPGQAPRLLIYSTSNLASGIPARFSGSGSGTDYTLTISSLEPEDFAVYYCQQRSSYPFTFGPGTKLDIKR
notes: also called HEKF T2
With B11 the EC50 [2] was 0.064 nM and 0.074 nM and 0.052 nM and 0.097 nM, the Kd [4] was 0.021 nM and the koff [4] was 1.4e-05 s⁻¹. The kon [4] was 678000 M⁻¹ s⁻¹ and the “Mean EC50 (ng/ml)” value [1] was 6.7 ng/mL.

B12: HBcVK (antibody, human IgG1, V domains shown)
VH: B11 VH with A24V, V48L, F67L, T68S
VL: QIILTQSPAIMSASPGEKVSITCSATSSVSYMHWFQQKPGTSPKLWIYSTSNLASGVPVRFSGSGSGTSYSLTISRMEAEDAATYYCQQRSSYPFTFGSGTKLEIK
notes: human IgG1/kappa
Binder B12 has an EC50 [2] of 0.066 nM.

B13: HEKA Fab fragment (Fab)
VH: B11 VH
light: B1 light
notes: Fab made by papain digestion
B13 gave a Kd [3] of 0.464 nM, a koff [3] of 0.000482 s⁻¹ and a kon [3] of 1.04e+06 M⁻¹ s⁻¹.

B14: RHE Y-VKC (antibody, human IgG1, V domains shown)
VH: B11 VH with Y109V
VL: B2 VL with W46L, V57I, Y70F
notes: human IgG1/kappa
B14 showed an EC50 [2] of 0.215 nM.

B15: RHE Y-VKFmut (antibody, human IgG1, V domains shown)
VH: B11 VH with Y109V
VL: B2 VL with I3V, W46L, V57I, F95Y
notes: human IgG1/kappa
Binder B15 has an EC50 [2] of 0.398 nM.

B16: HEKFmut (antibody, human IgG1, V domains shown)
VH: B11 VH
VL: B2 VL with I3V, W46L, V57I, F95Y
notes: human IgG1/kappa; also called HEKFmut IgG1
For B16, the EC50 [2] was 0.072 nM and the “Mean EC50 (ng/ml)” value [1] was 6.9 ng/mL.

B17: HEKF Fab fragment (Fab)
VH: B11 VH
light: B1 light with F70Y
notes: Fab made by papain digestion
B17 gave a Kd [3] of 0.592 nM, a koff [3] of 0.000545 s⁻¹ and a kon [3] of 920000 M⁻¹ s⁻¹.

B18: HEKAmut IgG1 antibody (antibody, V domains shown)
VH: B11 VH
VL: B2 VL with I3V, W46L, V57I, Y70F, F95Y
B18 was tested, and the “Mean EC50 (ng/ml)” value [1] was 43.3 ng/mL.

B19: RHE Y-VKG (antibody, human IgG1, V domains shown)
VH: B11 VH with Y109V
VL: B2 VL with I3V, F35Y, W46L, V57I, Y70F
notes: human IgG1/kappa
For B19, the EC50 [2] was 8.81 nM.

B20: RHE Y-VKE (antibody, human IgG1, V domains shown)
VH: B11 VH with Y109V
VL: B2 VL with I3V, W46L, Y70F
notes: human IgG1/kappa
In the case of B20, the EC50 [2] is reported as 0.07 nM.

B21: RHE Y-VKB (antibody, human IgG1, V domains shown)
VH: B11 VH with Y109V
VL: B2 VL
notes: human IgG1/kappa
For B21, the EC50 [2] was 0.306 nM.

B22: RHE Y-VKA (antibody, human IgG1, V domains shown)
VH: B11 VH with Y109V
VL: B2 VL with I3V, W46L, V57I, Y70F
notes: human IgG1/kappa
In the case of B22, the EC50 [2] is reported as 0.088 nM.

B23: HAcVK (antibody, human IgG1, V domains shown)
VH: B11 VH with G49S
VL: B12 VL
notes: human IgG1/kappa
With B23 the EC50 [2] was 0.067 nM.

B24: RHE Y-VKD (antibody, human IgG1, V domains shown)
VH: B11 VH with Y109V
VL: B2 VL with I3V, V57I, Y70F
notes: human IgG1/kappa
Work on B24 yielded an EC50 [2] of 0.283 nM.

B25: RHE Y-VKF (antibody, human IgG1, V domains shown)
VH: B11 VH with Y109V
VL: B2 VL with I3V, W46L, V57I
notes: human IgG1/kappa
B25 gave an EC50 [2] of 0.091 nM.
